The target of this test is maltose binding protein MalE from E. coli (Escherichia coli, UniProt P0AEX9 27-396 = MBP).

Values joined by “and” are separate entries in the source; they are usually repeats but may differ in a detail not shown here. Identical values can stand only once.

B1: DarpOff7(wt) (designed binder)
chain: MRGSHHHHHHGSDLGRKLLEAARAGQDDEVRILMANGADVNAADNTGTTPLHLAAYSGHLEIVEVLLKHGADVDASDVFGYTPLHLAAYWGHLEIVEVLLKNGADVNAMDSDGMTPLHLAAKWGYLEIVEVLLKHGADVNAQDKFGKTAFDISIDNGNEDLAEILQKLN
For B1, the Kd was 11 nM and 5.6 nM.

What is called Kd is the constant that tells how readily two partners part at equilibrium. Low values mean tighter binding, high ones weaker binding.

Source of the values: patent publication EP2103936A1 (Institut Pasteur, dated 2009).
